B1: W318F: USP mutant, phenylalanine at position 318 (protein)
chain: MDNCDQDASFRLSHIKEEVKPDISQLNDSNNSSFSPKAESPVPFMQAMSMVHVLPGSNSASSNNNSAGDAQMAQAPNSAGGSAAAAVQQQYPPNHPLSGSKHLCSICGDRASGKHYGVYSCEGCKGFFKRTVRKDLTYACRENRNCIIDKRQRNRCQYCRYQKCLTCGMKREAVQEERQRGARNAAGRLSASGGGSSGPGSVGGSSSQGGGGGGGVSGGMGSGNGSDDFMTNSVSRDFSIERIIEAEQRAETQCGDRALTFLRVGPYSTVQPDYKGAVSALCQVVNKQLFQMVEYARMMPHFAQVPLDDQVILLKAAFIELLIANVAWCSIVSLDDGGAGGGGGGLGHDGSFERRSPGLQPQQLFLNQSFSYHRNSAIKAGVSAIFDRILSELSVKMKRLNLDRRELSCLKAIILYNPDIRGIKSRAEIEMCREKVYACLDEHCRLEHPGDDGRFAQLLLRLPALRSISLKCQDHLFLFRITSDRPLEELFLEQLEAPPPPGLAMKLE
B2: P498W/P499W/W318F: USP mutant, tryptophan at 498 and 499, phenylalanine at 318 (protein)
chain: MDNCDQDASFRLSHIKEEVKPDISQLNDSNNSSFSPKAESPVPFMQAMSMVHVLPGSNSASSNNNSAGDAQMAQAPNSAGGSAAAAVQQQYPPNHPLSGSKHLCSICGDRASGKHYGVYSCEGCKGFFKRTVRKDLTYACRENRNCIIDKRQRNRCQYCRYQKCLTCGMKREAVQEERQRGARNAAGRLSASGGGSSGPGSVGGSSSQGGGGGGGVSGGMGSGNGSDDFMTNSVSRDFSIERIIEAEQRAETQCGDRALTFLRVGPYSTVQPDYKGAVSALCQVVNKQLFQMVEYARMMPHFAQVPLDDQVILLKAAFIELLIANVAWCSIVSLDDGGAGGGGGGLGHDGSFERRSPGLQPQQLFLNQSFSYHRNSAIKAGVSAIFDRILSELSVKMKRLNLDRRELSCLKAIILYNPDIRGIKSRAEIEMCREKVYACLDEHCRLEHPGDDGRFAQLLLRLPALRSISLKCQDHLFLFRITSDRPLEELFLEQLEAWWPPGLAMKLE
B3: W318F/W328F: USP mutant, phenylalanine at positions 318 and 328 (protein)
chain: MDNCDQDASFRLSHIKEEVKPDISQLNDSNNSSFSPKAESPVPFMQAMSMVHVLPGSNSASSNNNSAGDAQMAQAPNSAGGSAAAAVQQQYPPNHPLSGSKHLCSICGDRASGKHYGVYSCEGCKGFFKRTVRKDLTYACRENRNCIIDKRQRNRCQYCRYQKCLTCGMKREAVQEERQRGARNAAGRLSASGGGSSGPGSVGGSSSQGGGGGGGVSGGMGSGNGSDDFMTNSVSRDFSIERIIEAEQRAETQCGDRALTFLRVGPYSTVQPDYKGAVSALCQVVNKQLFQMVEYARMMPHFAQVPLDDQVILLKAAFIELLIANVAFCSIVSLDDGGAGGGGGGLGHDGSFERRSPGLQPQQLFLNQSFSYHRNSAIKAGVSAIFDRILSELSVKMKRLNLDRRELSCLKAIILYNPDIRGIKSRAEIEMCREKVYACLDEHCRLEHPGDDGRFAQLLLRLPALRSISLKCQDHLFLFRITSDRPLEELFLEQLEAPPPPGLAMKLE
B4: P498W/P499W/W318F/W328F: USP mutant, tryptophan at 498 and 499, phenylalanine at 318 and 328 (protein)
chain: MDNCDQDASFRLSHIKEEVKPDISQLNDSNNSSFSPKAESPVPFMQAMSMVHVLPGSNSASSNNNSAGDAQMAQAPNSAGGSAAAAVQQQYPPNHPLSGSKHLCSICGDRASGKHYGVYSCEGCKGFFKRTVRKDLTYACRENRNCIIDKRQRNRCQYCRYQKCLTCGMKREAVQEERQRGARNAAGRLSASGGGSSGPGSVGGSSSQGGGGGGGVSGGMGSGNGSDDFMTNSVSRDFSIERIIEAEQRAETQCGDRALTFLRVGPYSTVQPDYKGAVSALCQVVNKQLFQMVEYARMMPHFAQVPLDDQVILLKAAFIELLIANVAFCSIVSLDDGGAGGGGGGLGHDGSFERRSPGLQPQQLFLNQSFSYHRNSAIKAGVSAIFDRILSELSVKMKRLNLDRRELSCLKAIILYNPDIRGIKSRAEIEMCREKVYACLDEHCRLEHPGDDGRFAQLLLRLPALRSISLKCQDHLFLFRITSDRPLEELFLEQLEAWWPPGLAMKLE
B5: Q288A: dUSP mutant, Gln288 mutated to alanine (protein)
chain: MDNCDQDASFRLSHIKEEVKPDISQLNDSNNSSFSPKAESPVPFMQAMSMVHVLPGSNSASSNNNSAGDAQMAQAPNSAGGSAAAAVQQQYPPNHPLSGSKHLCSICGDRASGKHYGVYSCEGCKGFFKRTVRKDLTYACRENRNCIIDKRQRNRCQYCRYQKCLTCGMKREAVQEERQRGARNAAGRLSASGGGSSGPGSVGGSSSQGGGGGGGVSGGMGSGNGSDDFMTNSVSRDFSIERIIEAEQRAETQCGDRALTFLRVGPYSTVQPDYKGAVSALCQVVNKALFQMVEYARMMPHFAQVPLDDQVILLKAAWIELLIANVAWCSIVSLDDGGAGGGGGGLGHDGSFERRSPGLQPQQLFLNQSFSYHRNSAIKAGVSAIFDRILSELSVKMKRLNLDRRELSCLKAIILYNPDIRGIKSRAEIEMCREKVYACLDEHCRLEHPGDDGRFAQLLLRLPALRSISLKCQDHLFLFRITSDRPLEELFLEQLEAPPPPGLAMKLE
B6: W328F: USP mutant, phenylalanine at position 328 (protein)
chain: MDNCDQDASFRLSHIKEEVKPDISQLNDSNNSSFSPKAESPVPFMQAMSMVHVLPGSNSASSNNNSAGDAQMAQAPNSAGGSAAAAVQQQYPPNHPLSGSKHLCSICGDRASGKHYGVYSCEGCKGFFKRTVRKDLTYACRENRNCIIDKRQRNRCQYCRYQKCLTCGMKREAVQEERQRGARNAAGRLSASGGGSSGPGSVGGSSSQGGGGGGGVSGGMGSGNGSDDFMTNSVSRDFSIERIIEAEQRAETQCGDRALTFLRVGPYSTVQPDYKGAVSALCQVVNKQLFQMVEYARMMPHFAQVPLDDQVILLKAAWIELLIANVAFCSIVSLDDGGAGGGGGGLGHDGSFERRSPGLQPQQLFLNQSFSYHRNSAIKAGVSAIFDRILSELSVKMKRLNLDRRELSCLKAIILYNPDIRGIKSRAEIEMCREKVYACLDEHCRLEHPGDDGRFAQLLLRLPALRSISLKCQDHLFLFRITSDRPLEELFLEQLEAPPPPGLAMKLE
B7: P498W/P499W: USP mutant, two prolines at end of α-helix 12 replaced with tryptophan (protein)
chain: MDNCDQDASFRLSHIKEEVKPDISQLNDSNNSSFSPKAESPVPFMQAMSMVHVLPGSNSASSNNNSAGDAQMAQAPNSAGGSAAAAVQQQYPPNHPLSGSKHLCSICGDRASGKHYGVYSCEGCKGFFKRTVRKDLTYACRENRNCIIDKRQRNRCQYCRYQKCLTCGMKREAVQEERQRGARNAAGRLSASGGGSSGPGSVGGSSSQGGGGGGGVSGGMGSGNGSDDFMTNSVSRDFSIERIIEAEQRAETQCGDRALTFLRVGPYSTVQPDYKGAVSALCQVVNKQLFQMVEYARMMPHFAQVPLDDQVILLKAAWIELLIANVAWCSIVSLDDGGAGGGGGGLGHDGSFERRSPGLQPQQLFLNQSFSYHRNSAIKAGVSAIFDRILSELSVKMKRLNLDRRELSCLKAIILYNPDIRGIKSRAEIEMCREKVYACLDEHCRLEHPGDDGRFAQLLLRLPALRSISLKCQDHLFLFRITSDRPLEELFLEQLEAWWPPGLAMKLE

One test deals with 4DR12Core reporter promoter in Sf9 cells (endogenous USP). The experiment in a line: Dominant negative activity of transfected dUSP mutants on methyl epoxyfarnesoate activation of 4DR12Core reporter in Sf9 cells. The test is classed as cell-based, Spodoptera frugiperda. As to conditions: Table 1, mutants envisioned. The text has this: In another embodiment, mutant nuclear hormone receptors disclosed herein comprise amino acid substitutions that render the mutant to act as a “dominant negative.” Dominant negative proteins exploit protein-protein interactions, i.e., the interactions between a mutated protein produced by a transgene and the related native protein inside the cell. The mutant protein forms a dimer with an integral part of a wild type endogenous protein molecule. The mutant protein interacts with a whole range of native compatible gene products. Preferably, the mutant homodimerizes or heterodimerizes with an endogenous wild type partner to form a complex following ligand or independent of ligand binding. Preferably, as opposed to a complex of wild type monomers, a complex of a mutant and its endogenous wild type partner will be incapable of initiating transcription at a hormone receptor response reporter gene. Assays for determining dominant negative activity may be found in Examples 6 and 7 as well as FIG. 4.
Spodoptera frugiperda cell line, Sf9, was maintained and transfected as described previously Jones et al (1998) Biochem. J. 335, 79-84; Jones et al. (2000) Biochem. J. 346, 233-240. As an internal control to compare activities of different constructs, 0.3 μg of a constituitive heat-shock promoter-driven β-galactosidase gene was cotransfected. To study the role of USP in activation of the nuclear hormone receptor response element fused to core promoter in methyl epoxyfarnesoate-treated cells, cloned D. melangaster USP (dUSP) cDNA and its derivatives containing mutations in the ligand-binding pocket were cotransfected with the reporter and internal control plasmids. […] After 48 h of the treatment, the cells were harvested and the activity of the luciferase reporter was measured using a luciferase assay kit (Promega) in a multipurpose scintillation counter (Beckman, Fullerton, Calif.). β-Galactosidase activity was measured using chlorophenol red-[…] monosodium (CPRG; Roche Molecular Biochemicals) as a colorimetric substrate.
His-tagged dUSP dominant negative double mutant Cys472Ala/His475Leu (C472A/H475L) was over expressed in methyl epoxyfarnesoate-treated Sf9 cells that were cotransfected with the 4DR12Core reporter plasmid.
Under the model that overexpression of the C472A/H475L double mutant competed with endogenous USP in the pathways for transduction of the exogenous methyl epoxyfarnesoate signal, the level of effect of the double mutant ought to be dependent on its dose. […] This background of the blocked activation pathway was used to test whether activation by methyl epoxyfarnesoate treatment was actually dependent on the presence of wild-type USP. […] Again, over the range of the monotonic restoration of methyl epoxyfarnesoate-activated transcription, there was no effect of the transfected wild-type dUSP on the basal level of transcription in EtOH-treated controls.
As for B1, the “Dominant Negative Activity” value is recorded as “Weak Activity”.
Still for that read-out and setting: in the case of B2 it was “Weak Activity”.
In the case of B3, the “Dominant Negative Activity” value is recorded as “Weak Activity”.
As for B4, the “Dominant Negative Activity” value is listed as “Weak Activity”.

The test is the same for the next values; noted with them: receptor overexpressed in Sf9 cells, 75 μm methyl epoxyfarnesoate.
With B5, the “dominant negative effect on methyl epoxyfarnesoate-induced activation of 4DR12Core promoter” value was “acted as a dominant negative suppressor”.
Same read-out and setting: the result for B6 reads “not a dominant negative”; that for B1, “weak dominant negative”.
Same read-out and setting: in the case of B7 it was “not a dominant negative”.

These data come from US7259254B2, “Mutants and assay system to identify USP/RXR ligands” (University of Kentucky Research Foundation, priority 2002, dated 2007).
